± gives the uncertainty stated by the source.
Experiment: self-splicing fitness, log relative to wild type (ln ratio); higher = more splicing; Tetrahymena group I intron in knt gene, E. coli kanamycin selection, DiMSum; sequences stand for … in CUCUCU…GGAGGGAAAAGUUAUCAGGCAUGCACCUGGUAGCUAGUCUUUAAACCAAUAGAUUGCAUCGGUUUAAAAGGCAAGACCGUCAAAUUGCGGGAAAGGGGUCAACAGCCGUUCAGUACCAAGUCUCAGGGGAAACUUUGAGAUGGCCUUGCAAAGGGUAUGGUAAUAAGCUGACGGACAUGGUCCUAACCACGCAGCCAAGUCCUAAGUCAACAGAUCUUCUGUUGAUAUGGAUGCAGUUCACAGACUAAAUGUCGGUCGGGGAAGAUGUAUUCUUCUCAUAAGAUAUAGUCGGACCUCUCCUUAAUGGGAGCUAGCGGAUGAAGUGAUGCAACACUGGAGCCGCUGGGAACUAAUUUGUAUGCGAAAGUAUAUUGAUUAGUUUUGGAGUACUCGUGGUCG
Procedure, shortened: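 DiMSum derived fitness as the error-weighted combination of fold changes across replicates, kanamycin versus no kanamycin, normalised to wild type. E. coli BL21(DE3) held the library, which randomised all eight P1ex-region intron nucleotides within the knt kanamycin-resistance gene on pET-22b(+). Six replicate transformations grew overnight at 37°C or 30°C on LB agar with or without 25 μg/mL kanamycin, also containing 100 μg/mL carbenicillin, 50 μM IPTG and 0.2% rhamnose, and pooled colonies were amplicon-sequenced on an Illumina HiSeq 2500.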

Sequence | self-splicing fitness (ln) (30 °C) | self-splicing fitness (ln) (37 °C)
UGCGAGCAAUAUUACGAUUC | -2.7 ± 0.23 | –
GUCUAGCAAUAUUACGGGAU | -4.48 ± 0.42 | -3.39 ± 0.42
GGGGAGCAAUAUUACGUAGA | -2.43 ± 0.31 | -1.7 ± 0.4
UGAUAGCAAUAUUACGCGUC | -3.08 ± 0.31 | –
AAUAAGCAAUAUUACGGUGU | -2.59 ± 0.12 | -0.711 ± 0.12
CCCUAGCAAUAUUACGCUUG | -3.94 ± 0.42 | -2.18 ± 0.28
UACGAGCAAUAUUACGUCUU | -3.95 ± 0.33 | -3.41 ± 0.24
GGCAAGCAAUAUUACGGAAA | -1.55 ± 0.12 | -1.27 ± 0.13
GACUAGCAAUAUUACGCUUA | -0.282 ± 0.17 | -0.7 ± 0.14
GACCAGCAAUAUUACGAUUA | -0.607 ± 0.056 | -0.446 ± 0.072
GUAGAGCAAUAUUACGGGUG | -2.72 ± 0.22 | -2.93 ± 0.28
CUCUAGCAAUAUUACGUUAA | -2.75 ± 0.27 | –
CAAAAGCAAUAUUACGUCGG | -0.932 ± 0.073 | -0.25 ± 0.1
CGCAAGCAAUAUUACGGGCG | -4.43 ± 0.19 | -2.76 ± 0.2
UGGGAGCAAUAUUACGGGUU | – | -2.02 ± 0.47
CGUGAGCAAUAUUACGGACC | -2.51 ± 0.49 | –
AUUGAGCAAUAUUACGAAAA | -2.45 ± 0.41 | –
GGGGAGCAAUAUUACGCGCA | -2.35 ± 0.22 | -1.32 ± 0.25
AAUAAGCAAUAUUACGGCCA | -0.21 ± 0.12 | -0.615 ± 0.12
UUUUAGCAAUAUUACGACCA | -0.399 ± 0.34 | -0.577 ± 0.37

Sequence | self-splicing fitness (ln) (30 °C) | self-splicing fitness (ln) (37 °C)
UCGAAGCAAUAUUACGCGUU | -3.93 ± 0.21 | -1.47 ± 0.18
AGUGAGCAAUAUUACGUAUU | -3.27 ± 0.25 | -2.23 ± 0.31
ACCGAGCAAUAUUACGAUUU | -2.41 ± 0.11 | -0.954 ± 0.11
CCGCAGCAAUAUUACGGUUA | -3.25 ± 0.2 | -2.26 ± 0.2
AGGUAGCAAUAUUACGAUUA | -0.677 ± 0.016 | -0.383 ± 0.033
GUAUAGCAAUAUUACGGAGA | – | -2.57 ± 0.45
UGUCAGCAAUAUUACGGCUC | -2.5 ± 0.15 | -0.587 ± 0.16
UAGCAGCAAUAUUACGCGUC | -3.43 ± 0.2 | -2.87 ± 0.22
UUGAAGCAAUAUUACGCCGG | -0.0467 ± 0.11 | 0.0153 ± 0.15
GCUUAGCAAUAUUACGUCUC | -0.196 ± 0.096 | 0.386 ± 0.1
AUGAAGCAAUAUUACGGGUG | -1.81 ± 0.088 | -0.453 ± 0.098
UAGAAGCAAUAUUACGAACU | -1.79 ± 0.14 | 0.0205 ± 0.13
GGGCAGCAAUAUUACGAUAC | -1.1 ± 0.11 | 0.201 ± 0.12
GGCGAGCAAUAUUACGCAUA | -1.15 ± 0.17 | -0.988 ± 0.16
UAUGAGCAAUAUUACGCUAA | -1.99 ± 0.23 | -2.39 ± 0.25
GGGGAGCAAUAUUACGUAAC | -2.06 ± 0.46 | -0.204 ± 0.39
AACUAGCAAUAUUACGCCCU | 0.324 ± 0.067 | -0.165 ± 0.08
UGCUAGCAAUAUUACGCGAG | -4.4 ± 0.39 | -2.11 ± 0.31
AGUGAGCAAUAUUACGUGCA | -2.06 ± 0.14 | -0.509 ± 0.13
GUGGAGCAAUAUUACGGAAC | – | -0.66 ± 0.45

Source: the supplement of paper PMC7877785
